Measured values as given in article PMC7610489.

Target: P4-FAM, N-terminally fluorescein-labelled P4 peptide (Streptococcus cristatus)
Assay: MST

Substance	Kd
RagAB complex purified from wild-type P. gingivalis W83, 8xHis-tag on the C terminus of RagB	2000 nM
RagAB from P. gingivalis ATCC 33277 (complex)	200 nM
